These results are taken from US20090075342.

The series has as its system IgE (full length human IgE, h-IgE) (Homo sapiens), P01854-1. Briefly: filter. To be noted: 2'-deoxy at 6, 8, 9, 16, 18, 19, 20, 21, deoxyinosine at 16, 18, 20 (written as G), T24 = 3' inverted dT], dot-blot, DPBS with Mg and Ca, 0.1 mg/mL BSA, room temperature, 30 min.

IgE (full length human IgE, h-IgE) (Homo sapiens), P01854-1, sequence (P01854 other isoform, or with tags, fused parts or gaps): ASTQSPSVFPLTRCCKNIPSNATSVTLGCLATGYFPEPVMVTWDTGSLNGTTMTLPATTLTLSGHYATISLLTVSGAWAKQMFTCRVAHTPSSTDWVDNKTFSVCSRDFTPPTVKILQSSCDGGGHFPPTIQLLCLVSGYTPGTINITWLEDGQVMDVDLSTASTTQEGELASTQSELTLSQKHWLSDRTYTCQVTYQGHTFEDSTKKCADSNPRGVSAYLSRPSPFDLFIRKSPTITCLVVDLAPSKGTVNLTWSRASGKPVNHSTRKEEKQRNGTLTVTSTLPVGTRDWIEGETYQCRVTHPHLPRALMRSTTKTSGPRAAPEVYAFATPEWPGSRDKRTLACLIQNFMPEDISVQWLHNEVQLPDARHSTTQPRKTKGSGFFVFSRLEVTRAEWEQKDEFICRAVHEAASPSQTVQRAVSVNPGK

In the case of AGCCUGGGGACCCAUGGGGGGCU [ARC2983], the Kd – broadly, the free concentration of one partner at which half of the binding sites on the other are occupied at equilibrium, for simple one-to-one binding – (as ARC1666 (2'-OMe/2'-deoxy/deoxyinosine, 3' 3T cap) with PS between 8-9, 15-16, 16-17, 18-19, 19-20, 20-21 [2'-OMe at 1-5, 7, 10-15, 17, 22, 23, PS between 8-9, 15-16, 16-17, 18-19, 19-20, 20-21) worked out at 0.02 nM.

AGCCUGGGGACCCAUGGGGGGCU [ARC1666] had a Kd (2'-OMe at A1 G2 C3 C4 U5 G7 A10 C11 C12 C13 A14 U15 G17 C22 U23, 2'-deoxy at G6 G8 G9 I16 I18 G19 I20 G21, n = deoxyinosine, PS between 8-9, 15-16, 16-17, 18-19, 20-21, 3' 3T cap (inverted dT) [2'-OMe at 1-5, 7, 10-15, 17, 22, 23) of 0.035 nM.

For AGCCUGGGGACCCAUGGGGGGCU [ARC2982], the Kd (as ARC1666 (2'-OMe/2'-deoxy/deoxyinosine, 3' 3T cap) with PS between 8-9, 15-16, 16-17, 17-18, 18-19, 20-21 [2'-OMe at 1-5, 7, 10-15, 17, 22, 23, PS between 8-9, 15-16, 16-17, 17-18, 18-19, 20-21) stood at 0.03 nM.

Sequence AGCCUGGGGACCCAUGGGGGGCU [ARC3901] yielded a Kd (as ARC1666 (2'-OMe/2'-deoxy/deoxyinosine, 3' 3T cap) with PS between 8-9, 15-16, 16-17, 17-18, 18-19, 19-20, 20-21 [2'-OMe at 1-5, 7, 10-15, 17, 22, 23, PS between 8-9, 15-16, 16-17, 17-18, 18-19, 19-20, 20-21) of 0.13 nM.
